For this assay, the target named is T1, rhAxl-Fc protein (Homo sapiens, UniProt P30530).
T1 construct: purchased R and D Systems 154AL/CF
T1 sequence (P30530 26-451 limits assumed): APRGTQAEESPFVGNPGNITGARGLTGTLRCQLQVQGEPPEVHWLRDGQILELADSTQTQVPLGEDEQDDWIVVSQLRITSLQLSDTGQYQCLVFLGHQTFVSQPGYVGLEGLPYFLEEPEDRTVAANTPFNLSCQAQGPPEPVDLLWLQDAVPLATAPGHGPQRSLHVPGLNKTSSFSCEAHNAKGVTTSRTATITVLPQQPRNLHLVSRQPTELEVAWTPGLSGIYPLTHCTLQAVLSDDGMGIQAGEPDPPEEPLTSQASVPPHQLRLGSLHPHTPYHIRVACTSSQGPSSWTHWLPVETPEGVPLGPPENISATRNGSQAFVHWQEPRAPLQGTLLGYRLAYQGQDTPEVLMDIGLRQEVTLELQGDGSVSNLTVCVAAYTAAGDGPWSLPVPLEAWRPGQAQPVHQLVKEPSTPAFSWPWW
Put plainly: ELISA with coated 1613F12 and a range of rhAxl-Fc protein (hz vs. m). Type of assay: binding. The following applies: FIG. 3. The method, then: In this assay, 96 well plates (Immulon II, Thermo Fisher) were coated with a 5 μg/ml of 1613F12 solution in 1×PBS, overnight at 4° C. After a saturation step, a range of rh Axl-Fc protein (R and D Systems, ref: 154-AL) is incubated for 1 hour at 37° C. on the coated plates. For the revelation step, a biotinylated-Axl antibody (in house product) was added at 0.85 μg/ml for 1 hour at 37° C. This Axl antibody belongs to a distinct epitopic group. Then an avidin-horseradish peroxidase solution at 1/2000° in diluent buffer is added to the wells. Then the TMB substrate solution is added for 5 min. After addition of the peroxydase stop solution, the absorbance at […] was measured with a microplate reader.

B1: hz1613F12: humanized Axl antibody 1613F12 (antibody, V domains shown)
VH: QVQLVQSGAEVKKPGASVKVSCKASGFNIRDTYMHWVRQAPGQGLEWMGRLDPANGHTKYAQKFQGRVTMTRDTSISTAYMELSRLRSDDTAVYYCARGAYYYGSSGLFYFDYWGQGTLVTVSS
VL: DVQMTQSPSSLSASVGDRVTITCRASKSISKYLAWYQQKPGKVPKLLIYSGSTLQSGVPSRFSGSGSGTDFTLTISSLQPEDVATYYCQQHHEYPLTFGGGTKVEIK
modifications: Hz1613F12 VH - Consensus 2; Hz1613F12 VL - Consensus 2
notes: humanized Axl antibody 1613F12
For B1, the “binding of rhAxl-Fc protein, murine versus humanized version” value is listed as “bind similarly the rhAxl-Fc protein”.
